Experimental data as given in PMC6107238, “Conformational plasticity of the intrinsically disordered protein ASR1 modulates its function as a drought stress-responsive gene” (PLoS ONE, 2018).

How the values were obtained:
[1] = biological target: T1, ASR1 (Abscisic, Stress, Ripening 1) (Solanum lycopersicum (tomato), UniProt Q08655 1-115); experiment: fluorescence anisotropy; 100 uM ZnCl2; Buffer H: 100 mM NaCl, 20 mM HEPES pH 7.4, with 100 uM ZnCl2; 250 nM FITC-dsDNA; anisotropy temperature not stated (CD at 25 C); settings: protein: recombinant; tags: untagged in the main text (original His6 removed); label: 5' FITC on one strand; blunt
T1 sequence: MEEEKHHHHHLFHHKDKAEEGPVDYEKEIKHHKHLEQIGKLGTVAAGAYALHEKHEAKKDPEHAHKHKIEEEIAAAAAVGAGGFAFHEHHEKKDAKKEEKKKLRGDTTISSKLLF

[2] = biological target: the molecule itself; experiment: SDS-PAGE; purified ASR1 at high protein concentrations on SDS-PAGE

B1: FITC-oligoC (dsDNA)
DNA 1: TATTGGGCTTGG
DNA 2: CCAAGCCCAATA
Kd [1]: 216 ± 10 nM

B2: Tomato ASR1 (Abscisic, Stress, Ripening protein 1), untagged recombinant protein (natural protein, UniProt Q08655 1-115, looked up)
chain: MEEEKHHHHHLFHHKDKAEEGPVDYEKEIKHHKHLEQIGKLGTVAAGAYALHEKHEAKKDPEHAHKHKIEEEIAAAAAVGAGGFAFHEHHEKKDAKKEEKKKLRGDTTISSKLLF
notes: ASR1 of tomato; 'peaks corresponding to the expected full-length protein were pooled'; 12.7 kDa by SLS; The cloning of ASR1 alone is not described; also called untagged ASR1; ASR1 recombinant protein
binding result [2]: binds

B3: FITC-oligoS (dsDNA)
DNA 1: AGTTCTGGTTGG
DNA 2: CCAACCAGAACT
Kd [1]: 1080 ± 46 nM
